Measurements from PMC6529005, “FMRP - G-quadruplex mRNA - miR-125a interactions: Implications for miR-125a mediated translation regulation of PSD-95 mRNA”.

B1: PSD-95 Q2 4-2AP (structured_RNA)
RNA: GGGAGGGAGGGUGGG
modifications: A4 replaced by 2-aminopurine
B2: miR-196a-1 (ssRNA)
RNA: UAGGUAGUUUCAUGUUGUUGGG
B3: miR-125a (ssRNA)
RNA: UCCCUGAGACCCUUUAACCUGUGA
B4: PSD-95 Q11234 11-2AP (structured_RNA)
RNA: GGGAAAAGGGAGGGAUGGG
modifications: A11 replaced by 2-aminopurine

Tests used:
[1] = molecular target: T1, FMRP ISO1 (UniProt Q06787 1-632); assay: fluorescence titration (2AP); 150 mM KCl, 1 uM BSA; Fluorescence: 10 mM cacodylic acid pH 6.5, 150 mM KCl, 1 uM BSA, 200 nM RNA; EMSA: 0.5x TBE native gels at 4 C (5 mM KCl for PSD-95 RNAs), incubation at room te
[2] = molecular target: T1, FMRP ISO1; assay: EMSA; 200 nM RNA, up to 1:2; Fluorescence: 10 mM cacodylic acid pH 6.5, 150 mM KCl, 1 uM BSA, 200 nM RNA; EMSA: 0.5x TBE native gels at 4 C (5 mM KCl for PSD-95 RNAs), incubation at room te
[3] = molecular target: T1, FMRP ISO1; assay: EMSA; 200 nM RNA, up to 1:6 RNA:protein; Fluorescence: 10 mM cacodylic acid pH 6.5, 150 mM KCl, 1 uM BSA, 200 nM RNA; EMSA: 0.5x TBE native gels at 4 C (5 mM KCl for PSD-95 RNAs), incubation at room te

| Binder | Kd [1] [nM] | also measured |
| --- | --- | --- |
| B1 | 195 | – |
| B2 | – | binding result [2]: no binding |
| B3 | – | binding result [3]: no binding |
| B4 | 128 | – |
